From paper PMC10522637 come the findings set out here.

The assay concerns the target human Toll-like receptor 5 (3xFlag-hTLR5) (human) (UniProt O60602).
Sequence of UniProt O60602 (O60602 21-858): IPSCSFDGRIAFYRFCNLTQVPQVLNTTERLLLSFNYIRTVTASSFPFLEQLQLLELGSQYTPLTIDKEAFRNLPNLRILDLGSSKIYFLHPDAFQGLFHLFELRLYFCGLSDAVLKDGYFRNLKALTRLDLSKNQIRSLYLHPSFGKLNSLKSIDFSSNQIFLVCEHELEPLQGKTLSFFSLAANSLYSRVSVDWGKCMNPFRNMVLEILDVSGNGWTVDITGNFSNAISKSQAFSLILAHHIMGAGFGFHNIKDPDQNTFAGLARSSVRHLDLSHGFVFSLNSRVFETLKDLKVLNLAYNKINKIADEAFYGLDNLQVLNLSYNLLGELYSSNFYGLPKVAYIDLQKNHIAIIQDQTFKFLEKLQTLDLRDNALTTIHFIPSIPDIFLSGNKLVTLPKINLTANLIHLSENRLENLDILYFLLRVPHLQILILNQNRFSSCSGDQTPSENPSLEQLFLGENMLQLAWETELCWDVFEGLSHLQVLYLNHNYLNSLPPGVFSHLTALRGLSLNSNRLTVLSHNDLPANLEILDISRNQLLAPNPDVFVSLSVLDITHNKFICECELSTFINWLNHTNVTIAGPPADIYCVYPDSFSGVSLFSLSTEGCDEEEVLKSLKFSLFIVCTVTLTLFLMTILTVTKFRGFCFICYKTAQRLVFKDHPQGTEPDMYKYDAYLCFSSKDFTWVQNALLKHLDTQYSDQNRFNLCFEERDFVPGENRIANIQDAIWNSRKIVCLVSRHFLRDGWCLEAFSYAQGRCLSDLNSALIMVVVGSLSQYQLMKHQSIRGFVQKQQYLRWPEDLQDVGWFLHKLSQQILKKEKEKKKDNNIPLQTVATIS

Substance “PNGase F-treated (deglycosylated) eFlaB (natural protein)” came in with an EC50 of TLR5-dependent NF-κB stimulating activity, HEK-Blue hTLR5 reporter cells of 3.88 nM.
For “eukaryotic-expressed Vibrio vulnificus FlaB (eFlaB) (natural protein)” the value was 13.8 nM; for “prokaryotic-expressed Vibrio vulnificus FlaB (pFlaB) (natural protein)”, 3.32 nM.
